Reference: publication PMC8727025

Target: Arf1 Arf1-del17, lacks the first 17 amino acids (UniProt P84077)
Assay: GFP-GBF1 beads incubated with purified Arf1-del17-His
Details: reference: wild type

Chain of Arf1 Arf1-del17, lacks the first 17 amino acids (P84077 whole entry, looked up): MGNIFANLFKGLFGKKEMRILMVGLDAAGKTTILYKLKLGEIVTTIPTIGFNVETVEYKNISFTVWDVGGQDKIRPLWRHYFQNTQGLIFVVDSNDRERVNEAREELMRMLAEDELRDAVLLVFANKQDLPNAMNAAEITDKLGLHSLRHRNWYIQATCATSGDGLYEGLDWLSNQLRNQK

Substance | other: percent reduction vs wild type (sites Y876) | other: percent reduction vs wild type (sites Y898)
GBF1 (from UniProt Q92538-1) Y876F | 40% | 
GBF1 (from UniProt Q92538-1) Y898F |  | 60%
